Laboratory results from patent US20150125857A1.

How the values were obtained:
[1] = target: Frizzled (FZD) on the cell surface of pancreatic cancer cell lines; experiment: flow cytometry, YAPC cells stably expressing RNF43 F69C
[2] = target: Frizzled (FZD) on the cell surface of pancreatic cancer cell lines; experiment: flow cytometry, YAPC cells treated with 3 uM IWP-2
[3] = target: Frizzled (FZD) on the cell surface of pancreatic cancer cell lines; experiment: flow cytometry, HPAFII cells, pGL2 siRNA
[4] = target: Frizzled (FZD) on the cell surface of pancreatic cancer cell lines; experiment: flow cytometry, YAPC cells stably expressing wild-type RNF43
[5] = target: Frizzled (FZD) on the cell surface of pancreatic cancer cell lines; experiment: flow cytometry, YAPC cells transfected with pGL2 siRNA (control)
[6] = target: Frizzled (FZD) on the cell surface of pancreatic cancer cell lines; experiment: flow cytometry, PK1 cells, RNF43 siRNA
[7] = target: Frizzled (FZD) on the cell surface of pancreatic cancer cell lines; experiment: flow cytometry, YAPC cells transfected with beta-catenin siRNA#2
[8] = target: Frizzled (FZD) on the cell surface of pancreatic cancer cell lines; experiment: flow cytometry, YAPC cells treated with DMSO
[9] = target: Frizzled (FZD) on the cell surface of pancreatic cancer cell lines; experiment: flow cytometry, PaTu-8988S cells, RNF43 siRNA
[10] = target: Frizzled (FZD) on the cell surface of pancreatic cancer cell lines; experiment: flow cytometry, YAPC cells, pGL2 siRNA
[11] = target: Frizzled (FZD) on the cell surface of pancreatic cancer cell lines; experiment: flow cytometry, YAPC cells transfected with pGL2 siRNA (control), 18R5 + APC anti-human IgG
[12] = target: Frizzled (FZD) on the cell surface of pancreatic cancer cell lines; experiment: flow cytometry, Capan-2 cells, pGL2 siRNA
[13] = target: Frizzled (FZD) on the cell surface of pancreatic cancer cell lines; experiment: flow cytometry, Capan-2 cells, RNF43 siRNA
[14] = target: Frizzled (FZD) on the cell surface of pancreatic cancer cell lines; experiment: flow cytometry, YAPC cells stably expressing empty vector (EV)
[15] = target: Frizzled (FZD) on the cell surface of pancreatic cancer cell lines; experiment: flow cytometry, PaTu-8988S cells, pGL2 siRNA
[16] = target: Frizzled (FZD) on the cell surface of pancreatic cancer cell lines; experiment: flow cytometry, YAPC cells transfected with RNF43 siRNA#1, 18R5 + APC anti-human IgG
[17] = target: Frizzled (FZD) on the cell surface of pancreatic cancer cell lines; experiment: flow cytometry, HPAFII cells, RNF43 siRNA
[18] = target: Frizzled (FZD) on the cell surface of pancreatic cancer cell lines; experiment: flow cytometry, PK1 cells, pGL2 siRNA
[19] = target: Frizzled (FZD) on the cell surface of pancreatic cancer cell lines; experiment: flow cytometry, YAPC cells treated with 1 uM LGK974
[20] = target: Frizzled (FZD) on the cell surface of pancreatic cancer cell lines; experiment: flow cytometry, YAPC cells, RNF43 siRNA
[21] = target: Frizzled (FZD) on the cell surface of pancreatic cancer cell lines; experiment: flow cytometry, YAPC cells transfected with beta-catenin siRNA#1
[22] = target: Frizzled (FZD) on the cell surface of pancreatic cancer cell lines; experiment: flow cytometry, YAPC cells stably expressing RNF43 deltaRING
[23] = target: Frizzled (FZD) on the cell surface of pancreatic cancer cell lines; experiment: flow cytometry, YAPC cells transfected with RNF43 siRNA#2, 18R5 + APC anti-human IgG

B1: pan-Frizzled antibody 18R5 (antibody, INN chains, looked up, V domains shown)
VH: EVQLVESGGGLVQPGGSLRLSCAASGFTFSHYTLSWVRQAPGKGLEWVSVISGDGSYTYYADSVKGRFTISSDNSKNTLYLQMNSLRAEDTAVYYCARNFIKYVFANWGQGTLVTVSS
VL: DIELTQPPSVSVAPGQTARISCSGDNIGSFYVHWYQQKPGQAPVLVIYDKSNRPSGIPERFSGSNSGNTATLTISGTQAEDEADYYCQSYANTLSLVFGGGTKLTVL
A membrane Frizzled intensity in flow cytometry (RNF43 re-expression) [1] of 1500, a Median FZD intensity in FACS [2] of 1750 and a Mean FZD intensity in FACS [3] of 375 were found for B1 in this work. It also gave a membrane Frizzled intensity in flow cytometry (RNF43 re-expression) [4] of 686, a Median FZD intensity in FACS [5] of 137 and a Mean FZD intensity in FACS [6] of 923. The Median FZD intensity in FACS [7] was 561, the Median FZD intensity in FACS [8] was 721 and the Mean FZD intensity in FACS [9] was 245. For the same binder, the Mean FZD intensity in FACS [10] was 353, the Median FZD intensity in FACS [11] was 237 and the Mean FZD intensity in FACS [12] was 2440. It also gave a Mean FZD intensity in FACS [13] of 2640, a membrane Frizzled intensity in flow cytometry (RNF43 re-expression) [14] of 1040 and a Mean FZD intensity in FACS [15] of 293. It also gave a Median FZD intensity in FACS [16] of 1500, a Mean FZD intensity in FACS [17] of 402 and a Mean FZD intensity in FACS [18] of 473. For the same binder, the Median FZD intensity in FACS [19] was 1370, the Mean FZD intensity in FACS [20] was 1220 and the Median FZD intensity in FACS [21] was 530. It also gave a membrane Frizzled intensity in flow cytometry (RNF43 re-expression) [22] of 2000 and a Median FZD intensity in FACS [23] of 1750.
